# Numbering of substitutions follows the chain as printed. In names and notes the source's numbering stands.
# B1: CyPPO19 L327T + I408R + F360M: variant of CyPPO19 PPO protein (SEQ ID NO: 1) (protein)
# chain: MSEVDVAIVGGGLSGLSLAWRLQQSAPQYSVVLLEASDRLGGNITTQTAEGFVWELGPNSFAPTPALLQLIAEVGLQSELIRGDRHLPRYIYWRGQLYPLQPTRPLALATSNLLSPWGKVRAALGALGFVPPYLGSGDESVNSFFRRHLGQEVAERLVAPFVSGVYAGDPQQLSAAAAFRRIAQLEKLGGGLIAGALHLRRQQAPKPKPPTSVQMRPGELGSFKEGLAALPRAIAQQLKAPIHLQTPVQEITPDPKGGYLLRSGEQTWRARSVVLATPAYQTAELVAPFQPAIARVLATIPYPTVACVVLAYPAGLGRSVRPGFGVTIPRSQGIRTLGTIWSSCLFPQRTPAGWQVFTSMIGGATDPDLASLSEEAIVQQVQQDLNRLLDLPAAKARLLGMKVWRRARPQYMVGYPEQWQQVTHALSQTPGLFLCSNYAEGVALGDRVEHGNRTAAAVAAYLSGGQP
# modifications: Synthetic_PPO of Thermosynechococcus elongatus PKUAC-SCTE542 (comprising GenBank No. CP032152.1)
# B2: CyPPO19 R89A + V165C + L327T + F360V: variant of CyPPO19 PPO protein (SEQ ID NO: 1) (protein)
# chain: B1 chain with R89A, V165C, M360V, R408I
# modifications: Synthetic_PPO of Thermosynechococcus elongatus PKUAC-SCTE542 (comprising GenBank No. CP032152.1)
# B3: CyPPO19 R89A + A167L + L327T + F360I: variant of CyPPO19 PPO protein (SEQ ID NO: 1) (protein)
# chain: B1 chain with R89A, A167L, M360I, R408I
# modifications: Synthetic_PPO of Thermosynechococcus elongatus PKUAC-SCTE542 (comprising GenBank No. CP032152.1)
# B4: CyPPO19 L327T + I408W + F360V: variant of CyPPO19 PPO protein (SEQ ID NO: 1) (protein)
# chain: B1 chain with M360V, R408W
# modifications: Synthetic_PPO of Thermosynechococcus elongatus PKUAC-SCTE542 (comprising GenBank No. CP032152.1)
# B5: CyPPO19 R89A + V165S + I408R + F360L: variant of CyPPO19 PPO protein (SEQ ID NO: 1) (protein)
# chain: B1 chain with R89A, V165S, T327L, M360L
# modifications: Synthetic_PPO of Thermosynechococcus elongatus PKUAC-SCTE542 (comprising GenBank No. CP032152.1)
# B6: CyPPO19 R89A + V165S + V305M + F360M: variant of CyPPO19 PPO protein (SEQ ID NO: 1) (protein)
# chain: B1 chain with R89A, V165S, V305M, T327L, R408I
# modifications: Synthetic_PPO of Thermosynechococcus elongatus PKUAC-SCTE542 (comprising GenBank No. CP032152.1)
# B7: CyPPO19 R89A + A167L + V305L + F360T: variant of CyPPO19 PPO protein (SEQ ID NO: 1) (protein)
# chain: B1 chain with R89A, A167L, V305L, T327L, M360T, R408I
# modifications: Synthetic_PPO of Thermosynechococcus elongatus PKUAC-SCTE542 (comprising GenBank No. CP032152.1)
# B8: CyPPO19 V165C + F360L: variant of CyPPO19 PPO protein (SEQ ID NO: 1) (protein)
# chain: B1 chain with V165C, T327L, M360L, R408I
# modifications: Synthetic_PPO of Thermosynechococcus elongatus PKUAC-SCTE542 (comprising GenBank No. CP032152.1)
# B9: CyPPO19 R89A + V165C + A167C + F360I: variant of CyPPO19 PPO protein (SEQ ID NO: 1) (protein)
# chain: B1 chain with R89A, V165C, A167C, T327L, M360I, R408I
# modifications: Synthetic_PPO of Thermosynechococcus elongatus PKUAC-SCTE542 (comprising GenBank No. CP032152.1)
# Tested on: PPO-deficient BT3 E. coli (ΔPPO)
# Assay: PPO-inhibiting herbicide tolerance test of PPO variants in E. coli (growth on herbicide-containing LB agar)
# Format: cell-based
# Conditions: CyPPO19 variants in BT3 (ΔPPO) E. coli; LB agar with 0 to 2,000 μM herbicide, 37° C., dark, 16-20 hours
# Procedure, shortened: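 Transformants were grown to OD600 0.5–1, adjusted to OD600=0.5 and spotted as 10-fold dilutions on LB agar with ampicillin (100 μg/mL) and 0 to 2,000 μM herbicide. Plates were kept at 37° C in the dark for 16-20 hours; growth was scored relative to wild type, one '+' per 10-fold resistance.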
Molecule,"tolerance level relative to wild type, Carfentrazone","tolerance level relative to wild type, Flumioxazin","tolerance level relative to wild type, Fomesafen","tolerance level relative to wild type, Oxyfluorfen","tolerance level relative to wild type, Saflufenacil","tolerance level relative to wild type, Sulfentrazone","tolerance level relative to wild type, Tiafenacil"
B1,+ (‘+’ per each 10-fold resistance),+++++ (until ‘+++++’ as maximal resistance),++ (‘+’ per each 10-fold resistance),+++ (‘+’ per each 10-fold resistance),+++ (‘+’ per each 10-fold resistance),+ (‘+’ per each 10-fold resistance),+++++ (until ‘+++++’ as maximal resistance)
B2,+ (‘+’ per each 10-fold resistance),++++ (‘+’ per each 10-fold resistance),+ (‘+’ per each 10-fold resistance),+ (‘+’ per each 10-fold resistance),+++ (‘+’ per each 10-fold resistance),++ (‘+’ per each 10-fold resistance),+++ (‘+’ per each 10-fold resistance)
B3,++ (‘+’ per each 10-fold resistance),++++ (‘+’ per each 10-fold resistance),+++ (‘+’ per each 10-fold resistance),+++++ (until ‘+++++’ as maximal resistance),++++ (‘+’ per each 10-fold resistance),++++ (‘+’ per each 10-fold resistance),++++ (‘+’ per each 10-fold resistance)
B4,++ (‘+’ per each 10-fold resistance),+++++ (until ‘+++++’ as maximal resistance),+++++ (until ‘+++++’ as maximal resistance),+++++ (until ‘+++++’ as maximal resistance),+++++ (until ‘+++++’ as maximal resistance),++++ (‘+’ per each 10-fold resistance),+++++ (until ‘+++++’ as maximal resistance)
B5,+ (‘+’ per each 10-fold resistance),++++ (‘+’ per each 10-fold resistance),++ (‘+’ per each 10-fold resistance),++ (‘+’ per each 10-fold resistance),++++ (‘+’ per each 10-fold resistance),+++ (‘+’ per each 10-fold resistance),++++ (‘+’ per each 10-fold resistance)
B6,+ (‘+’ per each 10-fold resistance),+++++ (until ‘+++++’ as maximal resistance),+++ (‘+’ per each 10-fold resistance),++ (‘+’ per each 10-fold resistance),+++++ (until ‘+++++’ as maximal resistance),+++ (‘+’ per each 10-fold resistance),+++++ (until ‘+++++’ as maximal resistance)
B7,+ (‘+’ per each 10-fold resistance),++ (‘+’ per each 10-fold resistance),++ (‘+’ per each 10-fold resistance),++ (‘+’ per each 10-fold resistance),+++ (‘+’ per each 10-fold resistance),++ (‘+’ per each 10-fold resistance),+++ (‘+’ per each 10-fold resistance)
B8,+ (‘+’ per each 10-fold resistance),++++ (‘+’ per each 10-fold resistance),+++ (‘+’ per each 10-fold resistance),++ (‘+’ per each 10-fold resistance),++++ (‘+’ per each 10-fold resistance),++++ (‘+’ per each 10-fold resistance),++++ (‘+’ per each 10-fold resistance)
B9,+ (‘+’ per each 10-fold resistance),+++ (‘+’ per each 10-fold resistance),++ (‘+’ per each 10-fold resistance),+ (‘+’ per each 10-fold resistance),+++ (‘+’ per each 10-fold resistance),++ (‘+’ per each 10-fold resistance),+++ (‘+’ per each 10-fold resistance)

# — patent US12698507B2, “Methods and compositions for conferring and/or enhancing herbicide tolerance using protoporphyrinogen IX oxidase of various cyanobacteria or variant thereof” (FarmHannong Co., Ltd., priority 2019, dated 2026)
